We go through 58 molecules from US9389219B2, “Methods for screening inhibitors of tumor associated protein aggregation” (Vrije Universiteit Brussel, priority 2011, dated 2016).

One assay concerns WT p53 in U2OS cells. The experiment in a line: Western blot of p53 in U2OS cells treated with chemotherapeutic agents. It is filed as cell-based, human.
Settings: not given
For the molecule `COc1cccc2c1C(=O)c1c(O)c3c(c(O)c1C2=O)C[C@@](O)(C(=O)CO)C[C@@H]3O[C@H]1C[C@H](N)[C@H](O)[C@H](C)O1` [doxorubicin], the “p53 expression level (Western blot)” value is “increased expression levels of p53”.

In another assay the target is p53β (p53-aggregating sequence ILTIITL) (Homo sapiens, UniProt P04637). The assay can be described thus: In vitro peptide-binding assay (PepSpot membrane, biotinylated p53β peptide, streptavidin-HRP). Particulars: immobilized peptide, p53β self-interaction = 100,00. The text has this:
In order to identify aggregating peptides that match p53β, the human proteome for peptides that have high homology with the p53β peptide were screened. While p53β is unique to p53, in silico analysis identified 56 additional peptides (Table 2) that have no more than two mismatches with p53β. Subsequently, the ability of the selected peptides to interact with p53β using an in vitro peptide-binding assay was empirically determined. Therefore, the 56 selected peptides were spot-synthesized on a cellulose membrane, which was subsequently incubated with biotinylated p53β peptide (FIG. 17, panel b). After washing, the membrane was treated with streptavidine-HRP to detect p53β binding (FIG. 17, panel c). Consistently, the assay successfully identified control peptides including p53β itself, as well as the equivalent sequences from p63 and p73. […] The sequence identity between p53β and their interacting peptide, however, is 75%. Although the function of the proteins from which these 33 interacting peptides stem is often poorly characterized, some interesting cases can be identified. Along with the previously identified p63 and p73, which are inactivated by mutant p53 in cancer, segments were found belonging to Copine-2 (CPNE2), which is a negative regulator of growth factor signaling,^72 methionine synthase (METH), which has been associated to methionine dependence in tumors,^64 CGRF1, a negative regulator of cell proliferation,^67 and caspase-8 (CASP8), a key element for apoptosis, the inactivation of which is associated to chemoresistance and found in a variety of human cancers.^66
Peptides of selected sequences were spot synthesized on PVDF membrane (PepSpot, JPT). The membranes were blocked by 1% BSA in phosphate-buffered saline for 1 hour at room temperature, and then incubated with biotinylated peptide containing the p53-aggregating sequence for 1 hour. After rinsing with 0.1% TWEEN® 20 in 25 mM MES buffer pH 7.0, membranes were incubated in HRP-labeled Streptavidin (Thermo) and visualized with electrochemical luminescence (ECL) system.
Take “ALTFITL (listed as Homo sapiens) [peptide from BN3D2_HUMAN]”: the “Binding intensity (normalized)” value was 6,47. Same read-out and setting: for “ALVIITL (listed as Homo sapiens) [peptide from CCNI2_HUMAN]” the value was 43,37; for “CLTIITG (listed as Homo sapiens) [peptide from TRI18_HUMAN]”, 3,67. Still for that read-out and setting: for “DLTIIDL (listed as Homo sapiens) [peptide from MX2_HUMAN]” the value was 40,18. The same measure, in the same setting: in the case of “FLTIFTL (listed as Homo sapiens) [peptide from PRA10_HUMAN]” it was 26,40; in that of GLTIPTL (listed as Homo sapiens), 10,86; in that of “IEVIITL (listed as Homo sapiens) [peptide from CXL11_HUMAN]”, 8,54. For the molecule “IHAIITL (listed as Homo sapiens) [peptide from LRC40_HUMAN]”, the “Binding intensity (normalized)” value was 8,22. On the same count and under the same terms, for “IKSIITL (listed as Homo sapiens) [peptide from CT132_HUMAN]” the value was 4,39; for “IKTIINL (listed as Homo sapiens) [peptide from PTPC1_HUMAN]”, 9,72. The same measure, in the same setting: for “ILCDITL (listed as Homo sapiens) [peptide from KLH32_HUMAN]” the value was 7,89; for “ILDIITS (listed as Homo sapiens) [peptide from ANXA6_HUMAN]”, 78,87.

As to “ILGKITL (listed as Homo sapiens) [peptide from MP2K4_HUMAN]”, the “Binding intensity (normalized)” value was 16,85. Still for that read-out and setting: in the case of “ILIIITL (listed as Homo sapiens) [peptide from P73_HUMAN]” it was 98,99. On the same count and under the same terms, for “ILIIVTL (listed as Homo sapiens) [peptide from P63_HUMAN]” the value was 92,04; for “ILKNITL (listed as Homo sapiens) [peptide from BPA1_HUMAN]”, 12,10; for ILKQITL (listed as Homo sapiens), 19,84. On the same count and under the same terms, in the case of “ILLIITD (listed as Homo sapiens) [peptide from CPNE2_HUMAN]” it was 111,13. With “ILQIISL (listed as Homo sapiens) [peptide from PK3C3_HUMAN]”, the “Binding intensity (normalized)” value is listed as 26,33. For the molecule “ILQIITE (listed as Homo sapiens) [peptide from DHX29_HUMAN]”, the “Binding intensity (normalized)” value is 15,64.

“ILRQITL (listed as Homo sapiens) [peptide from CD2A1_HUMAN]”: the “Binding intensity (normalized)” value was 14,74.

On to “ILSIDTL (listed as Homo sapiens) [peptide from SPEF2_HUMAN]”, for which the “Binding intensity (normalized)” value is 79,63.

For ILTDVTL (listed as Homo sapiens), the “Binding intensity (normalized)” value is listed as 5,88. Same read-out and setting: for “ILTEIHL (listed as Homo sapiens) [peptide from RFC5_HUMAN]” the value was 12,86; for “ILTFKTL (listed as Homo sapiens) [peptide from DYH3_HUMAN]”, 6,20.

In the case of ILTICTK (listed as Homo sapiens), the “Binding intensity (normalized)” value is given as 6,48. On the same count and under the same terms, for ILTIGTG (listed as Homo sapiens) the value was 49,22; for ILTIITL (listed as Homo sapiens), 100,00.

In the case of “ILTIKEL (listed as Homo sapiens) [peptide from ZN830_HUMAN]”, the “Binding intensity (normalized)” value is recorded as 14,09. Consider ILTILCL (listed as Homo sapiens), for which the “Binding intensity (normalized)” value is 4,81.

Take “ILTILTE (listed as Homo sapiens) [peptide from CASP8_HUMAN]”: the “Binding intensity (normalized)” value is 11,43.

On to “ILTISSL (listed as Homo sapiens) [peptide from KV122_HUMAN]”, for which the “Binding intensity (normalized)” value is 23,80. Still for that read-out and setting: in the case of “ILTITTP (listed as Homo sapiens) [peptide from CBPC3_HUMAN]” it was 19,59.

With “ILTIVSL (listed as Homo sapiens) [peptide from DHX33_HUMAN]”, the “Binding intensity (normalized)” value is given as 10,20.

“ILTKISL (listed as Homo sapiens) [peptide from HEAT1_HUMAN]”: the “Binding intensity (normalized)” value was 8,65.

With “ILTKPTL (listed as Homo sapiens) [peptide from MYST3_HUMAN]”, the “Binding intensity (normalized)” value was 16,14. Take “ILTKSTL (listed as Homo sapiens) [peptide from CND2_HUMAN]”: the “Binding intensity (normalized)” value is on record as 17,86. Same read-out and setting: for “ILTKYTL (listed as Homo sapiens) [peptide from NOL11_HUMAN]” the value was 33,34; for “ILTLIEL (listed as Homo sapiens) [peptide from SMG1_HUMAN]”, 9,77. On the same count and under the same terms, in the case of “ILTNTTL (listed as Homo sapiens) [peptide from CC132_HUMAN]” it was 76,96. For the molecule “ILTSGTL (listed as Homo sapiens) [peptide from RTEL1_HUMAN]”, the “Binding intensity (normalized)” value is 17,31. Still for that read-out and setting: in the case of ILTSQTL (listed as Homo sapiens) it was 2,39. The same measure, in the same setting: for “ILVIITR (listed as Homo sapiens) [peptide from LONF2_HUMAN]” the value was 6,81; for “IQTISTL (listed as Homo sapiens) [peptide from SCC4_HUMAN]”, 7,06. Regarding “ITTGITL (listed as Homo sapiens) [peptide from CGRF1_HUMAN]”, the “Binding intensity (normalized)” value was 36,69.

On to “ITTVITL (listed as Homo sapiens) [peptide from CD041_HUMAN]”, for which the “Binding intensity (normalized)” value is given as 5,27.

IVTIITA (listed as Homo sapiens): the “Binding intensity (normalized)” value is on record as 17,21. Same read-out and setting: for IYTGITL (listed as Homo sapiens) the value was 32,12; for “KLTIITS (listed as Homo sapiens) [peptide from CM031_HUMAN]”, 17,88; for LLTIETL (listed as Homo sapiens), 26,55. Same read-out and setting: in the case of LLTIILL (listed as Homo sapiens) it was 3,95; in that of LLTIINL (listed as Homo sapiens), 1,55. On the same count and under the same terms, in the case of MLTEITL (listed as Homo sapiens) it was 3,03. With “RRPILTIITLEDGS (listed as Homo sapiens) [reference compound]”, the “Binding intensity (normalized)” value was 30,92. Same read-out and setting: for “TLTISTL (listed as Homo sapiens) [peptide from KV117_HUMAN]” the value was 10,18.

Turning to VLTISTL (listed as Homo sapiens), the “Binding intensity (normalized)” value is reported as 6,72.

The test system of a further assay is WT p53 in U2OS cells. The assay can be described thus: Native page analysis of p53 in treated U2OS cells.
Settings: not given
It is filed as cell-based, human.
For `CC(C)C[C@H](NC(=O)[C@H](Cc1ccccc1)NC(=O)c1cnccn1)B(O)O` [Bortezomib], the “p53 high molecular-weight species (native page)” value is “smear was comparable”.

For the molecule `COc1cccc2c1C(=O)c1c(O)c3c(c(O)c1C2=O)C[C@@](O)(C(=O)CO)C[C@@H]3O[C@H]1C[C@H](N)[C@H](O)[C@H](C)O1` [doxorubicin], the “p53 high molecular-weight species (native page)” value is given as “high molecular-weight species of p53”.
